# Source: patent US6506595
# B1: TEV protease (GIBCO BRL) (protein)
# chain: GESLFKGPRDYNPISSTICHLTNESDGHTTSLYGIGFGPFIITNKHLFRRNNGTLLVQSLHGVFKVKNTTTLQQHLIDGRDMIIIRMPKDFPPFPQKLKFREPQREERICLVTTNFQTKSMSSMVSDTSCTFPSSDGIFWKHWIQTKDGQCGSPLVSTRDGFIVGIHSASNFTNTNNYFTSVPKNFMELLTNQEAQQWVSGWRLNADSVLWGGHKVFMSKPEEPFQPVKEATQLMNELVYSQ
# Tests used:
# [1] = biological target: MWPmp20-(His)6-EGF-TEV-Somatostatin 28
protein,measurement,setting,value
B1,"cleavage of the fusion protein, shown by SDS-PAGE and Western blotting",MWPmp20-TEV-G-GH,the mutant human growth hormone G-GH with extra Gly at the N-terminus was cleaved at the same position (as indicated by an arrow) as the commercially available human growth hormone
same,"cleavage of the fusion protein, shown by Western blotting",[1],somatostatin 28 was cleaved out with TEV protease
